Reference: PMC9054685 (RSC Advances, 2020)

Experiment: Particle size by dynamic light scattering
Type: physicochemical
Conditions: Zetasizer Nano ZS, 25 °C

## dendritic polylysine-1,4,7-triazacyclononane-1,4,7-triacetic acid conjugate [NOTA-DGL]
  diameter (particle size, DLS): 35.02 ± 1.53 nm
